Test results reported in paper PMC12407261.

Key:
[1] = target: Streptomyces lydicus Family 2B encapsulin shell protein Sl‐Enc1 with N‐terminal His‐tag (Streptomyces lydicus); experiment: affinity purification with mass spectrometry; two-gene operon co-expressed in E. coli BL21 (DE3), only one of the two shell proteins His-tagged; Ni-NTA then SEC; SDS-PAGE bands identified by tryptic digest and LC-MS; ratio by gel densitometry
[2] = target: Streptomyces lydicus Family 2B encapsulin shell protein Sl‐Enc2 with N‐terminal His‐tag (Streptomyces lydicus); experiment: cryo-EM structure; Sl‐Enc2 majority mixed sample, 2 mg/mL in 150 mM NaCl, 25 mM Tris pH 8.0; consensus refinement with icosahedral symmetry imposed, 2.59 Å

| apparent share of Sl‐Enc1 in the purified mixed shells (gel densitometry) [1] [%] | apparent share of Sl‐Enc2 in the purified mixed shells (gel densitometry) [1] [%] | stoichiometry N [2] | Substance |
| --- | --- | --- | --- |
| 60 | 40 | – | Streptomyces lydicus Family 2B encapsulin shell protein Sl‐Enc2, untagged (natural protein) |
| – | – | 60 | Streptomyces lydicus Family 2B encapsulin shell protein Sl‐Enc2 with N‐terminal His‐tag (natural protein) |
